In US20040106569:
Marks after values point to notes of the source that are not given here.

Key:
[1] = tested on: myelin basic protein
[2] = tested on: GST-GSK3 fusion protein (Cell Signaling Technology)

Q: How did the “Activity (phosphorylation of MPB)” value [1] turn out when “PKNbeta kinase domain with threonine 718 changed to glutamic acid” was run?
A: -*!

Q: How did the “Activity (phosphorylation of MPB)” value [1] turn out when “PKNbeta kinase domain having a mutation at position 588 from lysine to arginine” was run?
A: -*

Q: For “PKNbeta kinase domain having a mutation at position 588 from lysine to glutamic acid”, which “Activity (phosphorylation of MPB)” value [1] is on record?
A: -*

Q: “PKNbeta kinase domain comprising amino acids 535-889” was tested. Which “non-radioactive in vitro kinase assay, phosphorylated substrate detected by Western blot” value [2] did it give?
A: Only the full length wildtype protein kinase N beta or the kinase domain as defined in example 9 were suitable to phosphorylate the substrate

Q: What about the “Activity (phosphorylation of MPB)” value [1] of the same substance?
A: +*

Q: And the “radioactive in vitro kinase assay, 32P incorporation by autoradiography (FIG. 11B)” value [1]?
A: the full length wildtype protein kinase N beta as well as the kinase domain show activity

Q: For “PKNbeta kinase domain with threonine 718 changed to aspartic acid”, which “Activity (phosphorylation of MPB)” value [1] is on record?
A: -*!

Q: For “PKNbeta kinase domain with threonine 718 changed to alanine”, which “Activity (phosphorylation of MPB)” value [1] is on record?
A: -*
